From PMC8604967
No end group written: not given here. *: point of attachment. FITC = O=C1OC2(c3ccc(O)cc3Oc3cc(O)ccc32)c2ccc(NC(=S)*)cc21

Target: yeast-displayed E4 peptide
Assay: flow cytometry on cells; E4 displayed on yeast cells; FITC-K4-TAMRA added at 100 nM, 15 min, 4 °C, PBS containing 5% immunoblock, two washings; 488 nm laser, 525/50 and 585/30 filters

{FITC}-KIAALKEKIAALKEKIAALKEKIAALKEC(5‑TAMRA C6 maleimide) [FITC-K4-TAMRA]
mean FITC and TAMRA fluorescence: 10000
